Like-named read-outs stand apart in the source and are kept apart here.
Columns and labels:
[1] = molecular target: PRRSV viral lysate (Porcine Reproductive and Respiratory Syndrome Virus); assay: ELISA, plate coated with 25.00 ng PRRSV viral lysate, 1 µg antibody
[2] = molecular target: PRRSV viral lysate (Porcine Reproductive and Respiratory Syndrome Virus); assay: ELISA, plate coated with 50.00 ng PRRSV viral lysate, 1 µg antibody
[3] = molecular target: porcine coronavirus lysate; assay: ELISA Test 2, plate coated with viral lysate, antibody diluted 1:4000
[4] = molecular target: PRRSV viral lysate (Porcine Reproductive and Respiratory Syndrome Virus); assay: as above
[5] = molecular target: PRRSV viral lysate (Porcine Reproductive and Respiratory Syndrome Virus); assay: ELISA, plate coated with 12.50 ng PRRSV viral lysate, 1 µg antibody
[6] = molecular target: porcine pseudorabies virus lysate; assay: ELISA Test 1, plate coated with viral lysate, antibody diluted 1:4000, Group 2
[7] = molecular target: porcine coronavirus lysate; assay: as above
[8] = molecular target: PRRSV viral lysate (Porcine Reproductive and Respiratory Syndrome Virus); assay: as above
[9] = molecular target: PRRSV viral lysate (Porcine Reproductive and Respiratory Syndrome Virus); assay: ELISA, plate coated with 1.56 ng PRRSV viral lysate, 1 µg antibody
[10] = molecular target: porcine pseudorabies virus lysate; assay: ELISA Test 1, plate coated with viral lysate, antibody diluted 1:4000, Group 1
[11] = molecular target: porcine coronavirus lysate; assay: as above
[12] = molecular target: PRRSV viral lysate (Porcine Reproductive and Respiratory Syndrome Virus); assay: as above
[13] = molecular target: PRRSV viral lysate (Porcine Reproductive and Respiratory Syndrome Virus); assay: ELISA, plate coated with 6.25 ng PRRSV viral lysate, 1 µg antibody
[14] = molecular target: PRRSV viral lysate (Porcine Reproductive and Respiratory Syndrome Virus); assay: ELISA, plate coated with 0.78 ng PRRSV viral lysate, 1 µg antibody
[15] = molecular target: PRRSV viral lysate (Porcine Reproductive and Respiratory Syndrome Virus); assay: ELISA, plate coated with 3.13 ng PRRSV viral lysate, 1 µg antibody
[16] = molecular target: PRRSV viral lysate (Porcine Reproductive and Respiratory Syndrome Virus)

B1: anti-PRRSV antibody 142 (antibody, V domains shown)
VH: EVQRVESGPGLVKPSQSLSLTCTVTGYSITNDYAWNWIRQFPGNKLEWMGYISYSGSTSYNPYLKSRISITRDTSKNQFFLQLNSVPTEDTATYYCARSTYGNYGYYYAMDCWGQGTSVTVSS
VL: DIVLTQSPASLAVSLGQRATISCRASESIEYYGTSLMQWYQQKPGQPPKLLIYAASNVESGVPARFSGSGSGTDFSLNIHPVEEDDIAMYFCQQSRKVPTFGGGTKLEIKR
For B1, the OD450 [1] was 1.3 OD450, the OD450 [2] was 1.36 OD450 and the OD450 [3] was 0.136 OD450. It also gave an OD450 [4] of 0.411 OD450, an OD450 [5] of 1.11 OD450 and an OD450 [6] of 0.08 OD450. It also gave an OD450 [7] of 0.133 OD450, an OD450 [8] of 0.344 OD450 and an OD450 [9] of 1.05 OD450. For the same binder, the OD450 [10] was 0.082 OD450, the OD450 [11] was 0.148 OD450 and the OD450 [12] was 0.385 OD450. It also gave an OD450 [13] of 1.16 OD450, an OD450 [14] of 0.984 OD450 and an OD450 [15] of 0.959 OD450. The OD450 [16] was 1.58 OD450.
